Article PMC2148214 (The Journal of Cell Biology, 1999)

Target: the molecule itself
Assay: velocity gradient sedimentation

B1: wild-type HTLV-1 envelope precursor glycoprotein (natural protein, UniProt P03381 21-488, looked up)
chain: DYSPSCCTLTIGVSSYHSKPCNPAQPVCSWTLDLLALSADQALQPPCPNLVSYSSYHATYSLYLFPHWTKKPNRNGGGYYSASYSDPCSLKCPYLGCQSWTCPYTGAVSSPYWKFQHDVNFTQEVSRLNINLHFSKCGFPFSLLVDAPGYDPIWFLNTEPSQLPPTAPPLLPHSNLDHILEPSIPWKSKLLTLVQLTLQSTNYTCIVCIDRASLSTWHVLYSPNVSVPSSSSTPLLYPSLALPAPHLTLPFNWTHCFDPQIQAIVSSPCHNSLILPPFSLSPVPTLGSRSRRAVPVAVWLVSALAMGAGVAGGITGSMSLASGKSLLHEVDKDISQLTQAIVKNHKNLLKIAQYAAQNRRGLDLLFWEQGGLCKALQEQCRFPNITNSHVPILQERPPLENRVLTGWGLNWDLGLSQWAREALQTGITLVALLLLVILAGPCILRQLRHLPSRVRYPHYSLIKPESSL
- stoichiometry N: 2
